According to the nanobody polyreactivity screen of Harvey et al. (2022):

Experiment: yeast display, Sf9 membrane polyspecificity reagent, FACS + sequencing; frameworks hold sequencing errors
Outline: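 Sorting gates, low and high (top ~1%), were placed on anti-HA fluorescence to track expression and on streptavidin fluorescence to track reagent binding. A clone's polyreactivity label is taken from the gate it came out of. The reagent was 10% biotinylated, detergent-solubilized Sf9 membrane, applied for 1 hour at 4 °C to galactose-induced yeast display cells.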

Sequence | polyreactivity (PSR sort gate)
QVQLVESGGGLVQAGGSLRLSCAASGNTFAGNAMGWYRLAPGKERELVAAISYSGGSTYYADSVKGRFTISRDNAKNNVYLQMNSLKPEDTAVYYCNAPQPGNGRTRSRYYYWGQGTQVTVSS | high polyreactivity
IILPGGRILLSCAASGRTFSGYGLGWYRQAPVKERELIADITSGGSTYYADSVKGRFTISRDNAKNTVYLQMNILIPVDTAVYYCAAERQIRSFWSSRTYEFGYWGQGTQVNVSS | low polyreactivity
QVQLVESCGGLVQAGGSHRLSCAASGSTFKGYDMGWYRQAPGKERELVAAIDSGGSTYYADSVKGRFTISRDNAKNTVYLQMNSLKPEDTAVYYCAATGQDTYGLDVVDEYDYWGQGTQVTVSS | low polyreactivity
QVQLVESGGGLVQAGGSLRLSCAASGYTFPYYTMGWYRQAPGKERELVAAISSGGRTKYADSVKGRFTISRDNAKNTVYLQMNSMKPEDTAVYYCNAVHSPAQCRSKYYPYNYWGQGTQVTVSS | high polyreactivity
QVQLVESGGGLVQAGGSLRLSCAASGRTFVQNAMGWYRQAPGKERELVASIRYRDGSTYYADSVKGRFTISRDNAKNTVYLQMNSLKPEDTAVYYCAAYLPGWELREYGYWGQGTQVTVSS | high polyreactivity
QVQLVESGGGLVQAGRSNRLSCAASGSLFPDYTMGWYRQAPGQERELVAGSTWNRGGTYYADSVKGRFTISRDNAKNTVYLQMNILKPEDTAVYYCAAEWSGSRSSGAWGPYNYWGQGSQVTVSS | low polyreactivity
QVQLVESGGGLVQAGGSLRLSCAACGRTFVDYVMGSYRQAPGKERELVAAISRSGSTYYADSVKGRFTISRDNAKNTVYLQRNSLKPEDTAVYYCAASSVALPWYASWYVYGYEYCGQGTQVTVSS | low polyreactivity
QVQLVESGGGLVQAGGSLRLSCAASGFIFSGNAMGWYRQAPGKARELVAAISWSGTSTFYADSVKGRFTISRDNAKNTVYLQMHSLIPEDTAVYYCAAETYYSYWYRPHYDYWGQGTQVTVSS | low polyreactivity
QVQLVESGRGLVQAGGSLRLSCAASGSTCEGNAMGWYRQAPGKEELVAAISWSSDSTYNADSVKGRFTISRDNAKNTVYLQMNSLKPEDTAVYYCAAAIPGKYSNDYWGQGTQVTVSS | high polyreactivity
QVQLVESGGGLVQAGGSLRLSCAASGGTFHYYAMGWYRQAPGKERELVAAINRSGDSTYYADSVKGRFTISRDNAKNTVYLQMNSLKPEDTAVFYCAVSYYGADGNPFPHDYWGQGTQVTVSS | low polyreactivity
QVQLVESGGGLVHAGGSLRLSCAASGSIFGWYAMGWYRQAPGKERELVASISWSGGGTYYADSVKGRFTISRDNAKNTVYLQMKSLKPEDTAVYYCAAVYIWRYGIRGGYYWGQGTQVSVSS | high polyreactivity
QVQLVESGGGLVQAGGSLRLSCAASGSIFVYYAMGWYRQAPGKERELVAGISTSGGSTYYADSVKGRFTISRDNAKNTVYLQMNSLKPEDTAVYYCAAVDSFGYYKLYEYWGQGTQVTVSS | high polyreactivity
QVQLVESGGGLVQAGGSLRLSCAASGSIFGYNPMGWYIQAPGKERELVAAISRSGGRTYYADSVKGRFTISRDNAKNTVYLQMNSLKPEDTAVYDCAAPVWRYYRGKTFDYWGQGTQVTVSS | high polyreactivity
QVQLQESGGGLVKAGGSLRLSCAASGNISNHNDMGWYRQAPGKESEFVAGITAGGITNYADSVKGRFTISRDNAKNTVYLQMNSLKPEDTAVYYCAAYPDYAKSYGYWGQGTQATVSS | low polyreactivity
QVQLQESGGGLVQAGGTITLGYDMGWYRQAPGKEREFVAGIDTGAITYYADSVKGRFTNSRDNAKNTVYLQMNCLKPEDTAVYYCAAIQTHTYAHSYWGQGNQVTVSS | high polyreactivity
QVQLVESGGGLVQAGGSLRLSCAASGSTFGGNAMGWYRQAPGKERELVASISDGGRTNYADSVKGRFTISRDNAKNTVYLQMNSLKPEDTAVYYCAADYAPVAFDYWGQGTQVTVSS | low polyreactivity
QVQRVESGGGLVQAGGSLRLSCAASGSTFKKYVMGWYRPAPGKERELVAAISGRGGSTYYADSVKGRFTISRDNAKNTVYLQMNSLKPEDTAVYYCNARKQTARFDSWGQGTQVTVSS | high polyreactivity
QVQLVESGGGLVQAGGSLRLSCAASGYTFWRYAMGWYRQAPGKERELVAAISQSGGRTYYADSVKGRFTISRDNAKNTVYLQMNSLKPEDTAVYYCATSSTQGDDYWGQGTQVTVSS | high polyreactivity
QFQLVESGGGLVQAGGSLRLSCAATGRTFYIYSMGWYRQAPGKERELVAAITSGGSTSYADSVKGRFTISRDNAKNTVYLQMNSLKPEDTAVYYCAADQYTYWFGYDYWGQGTQVTVSS | low polyreactivity
QVQHVESGGGLVQAGGSLRLSCAASVSIFYDYAMGWYRQAPGKERELVAAINKSGGSTYYADSVKGRFTISRDNAKNTVYLQMNSLKPEDTAVYYCIARKRLGPVRYGYWGQGTQVTVST | high polyreactivity
QVQLVESGGGLVQAGGSLRLSCAASGRIFRYNAMGWYRQAPGKERELVAALTSGGSTNYADSVKGRFTISRDNAKNTVYLQMNSLKPEDTAVYYCAVTGYRPYAYRRRYPYDYWGQGTQVTVSS | high polyreactivity
QVQLVESGGGLVQAGGSLRLSCAASGFTFFHYAMGWYRQAPGKERELVAAINTRGSRTYYADSVKGRFTISRDNAKNTVYLQMNSLKPEDNAVYYCAAEDYWYDFDYWGQGTQVTVSS | high polyreactivity

Sequence | polyreactivity (PSR sort gate)
QVQLVESGGGLVQAGGSLRLSCAASGSIFPYYAMGWYRQAPGKERELVATITSRGGSTYYADSVKGRFTISRDNAKNTVYLQMNSLKPEDTAVYYCAKEYRYYRRRYDYWGQGTQVTVSS | high polyreactivity
QVQLVESGGGLVQAGGSLRLSCAASGFTFYTYVRGWYRQAPGKERELVAAITSGVSTNYADSVKGRFTISRDNAKNTVYLQMNSLKPEDTAVYYCNKDVRPAYRWYDYWGQDTQVTVSS | low polyreactivity
QVQLEESGGGLVQAGGSLRLSCAASGRIFTRYALGWYRQAPGKERELVAAITGSGGSTYYADSVKGRFTISRDNAKNTVYLQMNSRKPEDTAVYYCATDFYCYRSYNYWGQGTQVTVSS | high polyreactivity
QVQLVESGGGLVQAGVSLRLSCAASGITFVNNDMGWYRQAPGKERELVAAISSSGGSTYYADSVKGRFTISRDNAKNTDYLQMNSLKPEDTAVYYCAAPWYNAGRFRYYYWGQGTQVTVSS | high polyreactivity
QVQLVESGGGLVQAGGSLRLSCAASGYILYANTMGWYRQAPGKERELVAAISGGGSTNYADSVKGRFTISRDNAKNTVYLQMNSLKPEDTAVYYCAVKTNQAGYDYWGQGTQVTVSS | low polyreactivity
QVQLVESGGGLVQAGGSLRLSCAASGFISYYYAMGWYRHAPGKEREFVAAITSSGGSTRYADSVKGCFTISRDNAKNTVYLQMNSLKPEDTAVYYCAAGNPYFWPYDYWGQGTQVTVSS | low polyreactivity
QVQLVESGGGLVQAGGSLRLSCAASGSIFTWNVKGWYRQAPGKERELVAAISSGGSTNYADSVKGRFTISRDNAKNTVYLQMNSLKPEDTAVYYCATYFRVWYRSYDYWGQGTQVTVSS | high polyreactivity
QVQLVESGVVLVQAGGSLRLSCAASGSIFAGYVMGWYRQAPGKERELVASISSGTGTYYADSVKGRFTISRDNAKNTVYLQMNSLKPEDTAVYYCAAECYRTVQFIRSRWSYTYDYWGQGTQVTVSS | low polyreactivity
QVQLVESGGGLVQAGGSLRLSCAASGSIFSSNAMGWYRPAPGKERELVAAITSGGSTTYADSVKGRFTISRDNAKNTVYLQMNSLKPEDTAVYYCAADPVYRYYHGWTYLDYDYWGQGTQVTVSS | low polyreactivity
QVQLVESGGGLVQAGGSLRLSCAASGSIFYYAMGWYRQAPGKERELVAAITTGDGTNYADSVKGRFTISRDNAKNTVYLQMNSLKPEDTAVYYCNSLPYQVWKRYSWGQGTQVTVSS | low polyreactivity
QVQVVESGGGLVQAGGSLRLSCAASGRIFNYYAMGWYRPAPGKERELVATITGGGRTYYADSVKGRFTISRDNGMKTVYLQMNSLKPEDSAVYYCAAQYGGLSYRYDYWGQGTQVTVSS | high polyreactivity
QVQLVESGGGLVQAGGSLRLSCAASGIILYPYFMGWYIQAPGKERELVAAISYSGGSTYYADSVKGRFTISGDNAKNTVYLQMNSLKPEDTAVYYCAAVPVTSQTKYGYWGQGTQVTVSS | high polyreactivity
QVQLVESGGGLVQAGGSLRLSCAASGYTFPLYAMGWYRQAPGKERELVADINIGGASTYYADSVKGRFTISRDNAKNTVYLQMYSLKPEDTAVYYCAKEYYDGYFPTFDYDYWGQGTQVTVSS | low polyreactivity
QVQLVESGGGLVQAGGSLRLSCAASGITFSYYAMGWYRQAPGKERELVAAITGGSTYYADSVKGRFTISRDNAKNTVYLQMNSLKPEDTAVYYCNADSLFEYLDYDYWGQGTQVTVSS | low polyreactivity
QVQLVESGGGLVQAGGSLRLSCAASGFTFGAYAMGWSRQAPGKERELVASISWSGGSTYYADSVKGRFTISRDNAKNTVYLQMNSLKPEDTAVYDCNKDFVYPDDDGLFDYWGQGTQVTVSS | low polyreactivity
QVHLVESGGGLVQAGGSLRLSCAASGYTFQWYDRGWYRQAPGKERELVASISWRGGSTYYADSVKGRFTISRDNAKNTVYLQMNSLKPEDTAVYYCAASLWPDYEYVYWGQGTQVTVSS | low polyreactivity
QVQLVESGGGLVQAGGSLRLSCAASGSSFRIYAMGWYRQAPGKERELVAAISWSSGSTYYADSVKGRFTISRDNAKNTDYLPMNSLKPEDTAVYYCATYARRSGYYYWGQGTQVTVSS | high polyreactivity
QVQLVESGGGLVQAGGSLRLSCAASGITFYYNAMGWYRQAPGKERELVADISARGGSTYYADSVKGRFTISRDNAKNTVYLQMNCLIPEDTAVYYCNTYPKKKRPNEYDYWGQGTQVSVSS | high polyreactivity
QVQLVESGGGLVQAGGSLRLSCAASGYTFRRYAMGWYRQAPGKERELVAAINYSGGSTYYADSVKGRFTISRDNSKNTVYLQMNSLKPEDTAVYYCAARVPSPYVATYYYWGQGTQVTVSS | high polyreactivity
QVQLVESGGGLVQAGGSLRLSCAASGFIFKKYVMGWYRQAPGKERELVAGISRSGGSTYYADSVKGRFTISRDNAKNTVYLQMNSLKPEDTAVYYCAAYIYQSPTRGGGYWGQGTQVTVSS | high polyreactivity
QVQLVESGGGLVQAGGSLRLSCAAYGLTFPWNAMGWYRQSPGKERELVAAITSRGGNTYYADSVKGRFTISRDNAKNTVYLQMNSLKPEDTAVYYCAARQYWSYRRYDYWGQGTQVTVSS | high polyreactivity
